Results on 65 substances are retold here after patent US20250171512A1.

Sequence of human FGFR1c together with human beta-Klotho (KLB), stably expressed on CHO Flp-In cells (human) (P11362 22-822, chain 1 of 2): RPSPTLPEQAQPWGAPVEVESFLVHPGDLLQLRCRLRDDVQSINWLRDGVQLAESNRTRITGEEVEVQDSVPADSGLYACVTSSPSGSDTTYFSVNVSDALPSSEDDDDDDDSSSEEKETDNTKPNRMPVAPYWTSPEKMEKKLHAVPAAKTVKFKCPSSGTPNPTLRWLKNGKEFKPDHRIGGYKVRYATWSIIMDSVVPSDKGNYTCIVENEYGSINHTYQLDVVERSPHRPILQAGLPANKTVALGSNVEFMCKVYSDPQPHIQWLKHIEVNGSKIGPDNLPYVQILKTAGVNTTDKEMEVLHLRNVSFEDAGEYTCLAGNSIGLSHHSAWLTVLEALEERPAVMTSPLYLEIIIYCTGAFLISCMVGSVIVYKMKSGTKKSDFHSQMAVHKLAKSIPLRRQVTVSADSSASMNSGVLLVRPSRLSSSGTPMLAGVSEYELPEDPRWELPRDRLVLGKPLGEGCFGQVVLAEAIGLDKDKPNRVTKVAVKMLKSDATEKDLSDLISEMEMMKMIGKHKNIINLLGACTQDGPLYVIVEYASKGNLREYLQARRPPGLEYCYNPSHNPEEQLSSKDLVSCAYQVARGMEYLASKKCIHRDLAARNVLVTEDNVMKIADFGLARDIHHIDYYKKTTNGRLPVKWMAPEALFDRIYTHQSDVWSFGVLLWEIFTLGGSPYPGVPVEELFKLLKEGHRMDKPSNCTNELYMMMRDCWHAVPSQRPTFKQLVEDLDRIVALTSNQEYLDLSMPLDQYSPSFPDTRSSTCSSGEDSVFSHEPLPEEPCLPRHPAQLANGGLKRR
Sequence of human FGFR1c together with human beta-Klotho (KLB), stably expressed on CHO Flp-In cells (human) (Q86Z14 whole entry, chain 2 of 2, further chain): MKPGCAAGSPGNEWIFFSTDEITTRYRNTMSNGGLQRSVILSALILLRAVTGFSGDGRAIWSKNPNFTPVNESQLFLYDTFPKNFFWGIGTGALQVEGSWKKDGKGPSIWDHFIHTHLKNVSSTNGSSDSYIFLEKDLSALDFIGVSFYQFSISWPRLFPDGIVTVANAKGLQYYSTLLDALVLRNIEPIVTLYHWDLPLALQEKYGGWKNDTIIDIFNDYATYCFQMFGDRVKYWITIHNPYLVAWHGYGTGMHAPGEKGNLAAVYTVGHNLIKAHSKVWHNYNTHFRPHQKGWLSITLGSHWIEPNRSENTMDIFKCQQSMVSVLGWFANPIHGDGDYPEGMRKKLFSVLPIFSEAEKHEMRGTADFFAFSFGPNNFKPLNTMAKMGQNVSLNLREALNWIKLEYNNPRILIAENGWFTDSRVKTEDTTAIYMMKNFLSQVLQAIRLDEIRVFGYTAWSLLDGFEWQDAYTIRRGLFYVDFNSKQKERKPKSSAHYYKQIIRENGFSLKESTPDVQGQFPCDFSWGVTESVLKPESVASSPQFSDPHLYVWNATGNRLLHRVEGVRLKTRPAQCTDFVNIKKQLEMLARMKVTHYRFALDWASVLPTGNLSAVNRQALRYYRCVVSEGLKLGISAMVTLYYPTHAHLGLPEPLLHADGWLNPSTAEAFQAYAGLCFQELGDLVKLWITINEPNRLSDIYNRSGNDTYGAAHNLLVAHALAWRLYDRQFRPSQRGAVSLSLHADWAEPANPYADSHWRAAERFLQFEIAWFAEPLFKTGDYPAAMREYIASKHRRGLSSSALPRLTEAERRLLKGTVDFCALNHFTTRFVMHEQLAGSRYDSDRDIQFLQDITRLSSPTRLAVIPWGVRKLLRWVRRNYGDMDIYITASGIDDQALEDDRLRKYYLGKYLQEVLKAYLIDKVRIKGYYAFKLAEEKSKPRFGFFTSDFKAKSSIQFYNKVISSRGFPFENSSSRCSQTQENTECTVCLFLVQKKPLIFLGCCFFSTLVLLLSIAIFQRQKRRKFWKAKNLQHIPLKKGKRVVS
Sequence of FGF21 M196 deleted, S201 deleted (SEQ ID NO: 70) (Q9NSA1 other isoform, or with tags, fused parts or gaps): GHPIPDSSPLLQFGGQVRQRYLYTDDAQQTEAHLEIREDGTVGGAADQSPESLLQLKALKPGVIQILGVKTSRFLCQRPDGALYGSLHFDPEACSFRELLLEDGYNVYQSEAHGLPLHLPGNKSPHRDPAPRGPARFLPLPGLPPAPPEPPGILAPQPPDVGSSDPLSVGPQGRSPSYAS
Sequence of FGF21 P185-P186 deleted (SEQ ID NO: 59) (Q9NSA1 other isoform, or with tags, fused parts or gaps): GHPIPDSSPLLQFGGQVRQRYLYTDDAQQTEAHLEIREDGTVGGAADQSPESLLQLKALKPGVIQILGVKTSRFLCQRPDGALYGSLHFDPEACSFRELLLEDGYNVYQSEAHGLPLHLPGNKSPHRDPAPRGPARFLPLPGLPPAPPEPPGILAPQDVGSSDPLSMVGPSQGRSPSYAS
Sequence of FGF21 G202 deleted (SEQ ID NO: 63) (Q9NSA1 other isoform, or with tags, fused parts or gaps): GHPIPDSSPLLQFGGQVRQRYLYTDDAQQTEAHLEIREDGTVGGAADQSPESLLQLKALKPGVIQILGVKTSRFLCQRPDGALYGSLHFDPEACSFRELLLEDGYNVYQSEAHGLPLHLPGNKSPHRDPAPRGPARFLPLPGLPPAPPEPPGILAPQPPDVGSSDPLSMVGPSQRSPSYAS
Sequence of FGF21 G189 deleted (SEQ ID NO: 55) (Q9NSA1 other isoform, or with tags, fused parts or gaps): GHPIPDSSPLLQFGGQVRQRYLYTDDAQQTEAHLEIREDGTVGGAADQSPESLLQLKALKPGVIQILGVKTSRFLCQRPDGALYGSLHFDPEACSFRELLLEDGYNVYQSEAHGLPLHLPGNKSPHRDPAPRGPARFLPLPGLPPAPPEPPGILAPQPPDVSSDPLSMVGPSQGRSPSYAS
Sequence of FGF21 GGGGS inserted between G198 and P199 (SEQ ID NO: 15) (Q9NSA1 other isoform, or with tags, fused parts or gaps): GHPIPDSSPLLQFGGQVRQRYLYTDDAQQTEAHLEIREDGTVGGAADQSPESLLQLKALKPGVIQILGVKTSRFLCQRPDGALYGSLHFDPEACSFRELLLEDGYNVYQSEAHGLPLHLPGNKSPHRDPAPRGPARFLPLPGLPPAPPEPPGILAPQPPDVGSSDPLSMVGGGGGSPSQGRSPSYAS
Sequence of FGF21 P205 deleted (SEQ ID NO: 66) (Q9NSA1 other isoform, or with tags, fused parts or gaps): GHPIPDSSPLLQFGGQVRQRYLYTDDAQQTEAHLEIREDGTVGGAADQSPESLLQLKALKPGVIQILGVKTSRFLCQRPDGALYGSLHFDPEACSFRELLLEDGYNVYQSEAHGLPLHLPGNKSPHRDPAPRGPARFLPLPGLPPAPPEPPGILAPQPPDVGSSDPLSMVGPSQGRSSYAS
Sequence of FGF21 G198-P199 deleted (SEQ ID NO: 30) (Q9NSA1 other isoform, or with tags, fused parts or gaps): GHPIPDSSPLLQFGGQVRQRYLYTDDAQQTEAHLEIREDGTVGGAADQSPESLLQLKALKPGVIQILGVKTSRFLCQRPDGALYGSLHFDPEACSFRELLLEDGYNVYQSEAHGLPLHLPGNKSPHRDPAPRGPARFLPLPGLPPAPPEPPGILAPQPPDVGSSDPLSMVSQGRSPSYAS
Sequence of FGF21 G198 deleted, S200 deleted (SEQ ID NO: 74) (Q9NSA1 other isoform, or with tags, fused parts or gaps): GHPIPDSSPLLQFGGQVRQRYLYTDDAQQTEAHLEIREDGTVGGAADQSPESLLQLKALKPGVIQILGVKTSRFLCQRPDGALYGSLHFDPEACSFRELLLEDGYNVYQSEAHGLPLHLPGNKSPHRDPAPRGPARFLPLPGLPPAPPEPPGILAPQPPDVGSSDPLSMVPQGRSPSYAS
Sequence of FGF21 P186 deleted (SEQ ID NO: 58) (Q9NSA1 other isoform, or with tags, fused parts or gaps): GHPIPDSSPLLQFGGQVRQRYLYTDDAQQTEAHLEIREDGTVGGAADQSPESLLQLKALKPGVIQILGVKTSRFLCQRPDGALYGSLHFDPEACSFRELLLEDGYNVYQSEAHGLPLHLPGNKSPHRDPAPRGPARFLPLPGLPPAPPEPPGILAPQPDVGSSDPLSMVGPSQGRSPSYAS
Sequence of FGF21 G198 deleted (SEQ ID NO: 29) (Q9NSA1 other isoform, or with tags, fused parts or gaps): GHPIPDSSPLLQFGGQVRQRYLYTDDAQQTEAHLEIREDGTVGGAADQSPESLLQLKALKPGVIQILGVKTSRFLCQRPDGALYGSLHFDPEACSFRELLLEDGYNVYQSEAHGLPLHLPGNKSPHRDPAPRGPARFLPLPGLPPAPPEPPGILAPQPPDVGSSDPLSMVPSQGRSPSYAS
Sequence of FGF21 D187 deleted (SEQ ID NO: 57) (Q9NSA1 other isoform, or with tags, fused parts or gaps): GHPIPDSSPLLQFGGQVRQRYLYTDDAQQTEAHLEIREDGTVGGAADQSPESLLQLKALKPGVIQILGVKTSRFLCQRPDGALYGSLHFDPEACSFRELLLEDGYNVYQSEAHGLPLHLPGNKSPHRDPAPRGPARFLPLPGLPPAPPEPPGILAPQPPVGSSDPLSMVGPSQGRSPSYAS
Sequence of FGF21 P199 deleted (SEQ ID NO: 11) (Q9NSA1 other isoform, or with tags, fused parts or gaps): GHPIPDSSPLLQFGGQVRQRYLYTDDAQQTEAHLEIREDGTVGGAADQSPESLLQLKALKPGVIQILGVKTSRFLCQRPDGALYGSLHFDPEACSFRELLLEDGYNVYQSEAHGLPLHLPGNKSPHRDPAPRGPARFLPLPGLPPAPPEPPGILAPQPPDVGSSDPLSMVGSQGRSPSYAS

This assay addresses human FGFR1c together with human beta-Klotho (KLB), stably expressed on CHO Flp-In cells (human) (UniProt P11362). As to the kind of experiment: cell-based or functional assay.
With “FGF21 A54C, P161C (SEQ ID NO: 109) (from UniProt Q9NSA1 29-209) (ligand)”, the pERK ICW EC50 is 6.38 nmol/L.
Under “FGF21 A59C, A73C (SEQ ID NO: 105) (from UniProt Q9NSA1 29-209) (ligand)” stands 19.2 nmol/L; under “FGF21 A59C, G71C (SEQ ID NO: 77) (from UniProt Q9NSA1 29-209) (ligand)”, 2.15 nmol/L; under “FGF21 A59C, G71C, G198Y (SEQ ID NO: 37) (from UniProt Q9NSA1 29-209) (ligand)”, 0.75 nmol/L.
Next, “FGF21 A59C, G71C, P199 deleted (SEQ ID NO: 36) (from UniProt Q9NSA1 29-209) (ligand)”: 1.16 nmol/L.
“FGF21 A72C, S79C (SEQ ID NO: 87) (from UniProt Q9NSA1 29-209) (ligand)” gave a pERK ICW EC50 of 11.8 nmol/L.
In turn, “FGF21 A72C, S79C, G108C, L142C (SEQ ID NO: 89) (from UniProt Q9NSA1 29-209) (ligand)” gave a pERK ICW EC50 of 8.24 nmol/L.
Next, “FGF21 A120C, A139C (SEQ ID NO: 114) (from UniProt Q9NSA1 29-209) (ligand)”: 22 nmol/L.
On to “FGF21 D130C, Y132C (SEQ ID NO: 83) (from UniProt Q9NSA1 29-209) (ligand)”, for which the pERK ICW EC50 was found to be 49.4 nmol/L.
Take “FGF21 D187 deleted (SEQ ID NO: 57) (from UniProt Q9NSA1 29-209) (ligand)”: the pERK ICW EC50 turned out to be 86.1 nmol/L.
Regarding “FGF21 E62C, A72C (SEQ ID NO: 106) (from UniProt Q9NSA1 29-209) (ligand)”, the pERK ICW EC50 is 2.03 nmol/L.
Under “FGF21 E62C, E78C (SEQ ID NO: 101) (from UniProt Q9NSA1 29-209) (ligand)” stands 2.44 nmol/L; under “FGF21 E62C, S79C (SEQ ID NO: 102) (from UniProt Q9NSA1 29-209) (ligand)”, 0.55 nmol/L.
As to “FGF21 E78C, T98C (SEQ ID NO: 118) (from UniProt Q9NSA1 29-209) (ligand)”, the pERK ICW EC50 worked out at 9.22 nmol/L.
For “FGF21 G67C, R100C (SEQ ID NO: 112) (from UniProt Q9NSA1 29-209) (ligand)”, the pERK ICW EC50 is 23.3 nmol/L.
Regarding “FGF21 G108C, L142C (SEQ ID NO: 86) (from UniProt Q9NSA1 29-209) (ligand)”, the pERK ICW EC50 is 1.48 nmol/L.
“FGF21 G108C, L142C, G198Y (SEQ ID NO: 41) (from UniProt Q9NSA1 29-209) (ligand)” showed a pERK ICW EC50 of 0.55 nmol/L.
Substance “FGF21 G108C, L142C, P199 deleted (SEQ ID NO: 40) (from UniProt Q9NSA1 29-209) (ligand)” displayed a pERK ICW EC50 of 0.9 nmol/L.
Next, “FGF21 G189 deleted (SEQ ID NO: 55) (from UniProt Q9NSA1 29-209) (ligand)”: 76.2 nmol/L; “FGF21 G198 deleted (SEQ ID NO: 29) (from UniProt Q9NSA1 29-209) (ligand)”: 41.6 nmol/L.
Under “FGF21 G198 deleted, P199F (SEQ ID NO: 31) (from UniProt Q9NSA1 29-209) (ligand)” stands 2.1 nmol/L.
In turn, “FGF21 G198 deleted, P199L (SEQ ID NO: 32) (from UniProt Q9NSA1 29-209) (ligand)” gave a pERK ICW EC50 of 4.8 nmol/L.
As to “FGF21 G198 deleted, P199L, S200N (SEQ ID NO: 33) (from UniProt Q9NSA1 29-209) (ligand)”, the pERK ICW EC50 came to 9.44 nmol/L.
As for “FGF21 G198 deleted, S200 deleted (SEQ ID NO: 74) (from UniProt Q9NSA1 29-209) (ligand)”, the pERK ICW EC50 was 77.8 nmol/L.
In turn, “FGF21 G198-P199 deleted (SEQ ID NO: 30) (from UniProt Q9NSA1 29-209) (ligand)” showed a pERK ICW EC50 of 14.5 nmol/L.
Under “FGF21 G198D (SEQ ID NO: 17) (from UniProt Q9NSA1 29-209) (ligand)” stands 4.94 nmol/L; under “FGF21 G198E (SEQ ID NO: 16) (from UniProt Q9NSA1 29-209) (ligand)”, 4.53 nmol/L; under “FGF21 G198K (SEQ ID NO: 19) (from UniProt Q9NSA1 29-209) (ligand)”, 1.81 nmol/L.
Next, “FGF21 G198P, P199G (SEQ ID NO: 24) (from UniProt Q9NSA1 29-209) (ligand)”: 10.8 nmol/L.
On to “FGF21 G198R (SEQ ID NO: 18) (from UniProt Q9NSA1 29-209) (ligand)”, for which the pERK ICW EC50 is 1.15 nmol/L.
“FGF21 G198Y (SEQ ID NO: 20) (from UniProt Q9NSA1 29-209) (ligand)”: the pERK ICW EC50 came out at 0.68 nmol/L.
In turn, “FGF21 G202 deleted (SEQ ID NO: 63) (from UniProt Q9NSA1 29-209) (ligand)” displayed a pERK ICW EC50 of 8.18 nmol/L.
For the substance “FGF21 GGGGS inserted between G198 and P199 (SEQ ID NO: 15) (from UniProt Q9NSA1 29-209) (ligand)”, the pERK ICW EC50 worked out at 3.07 nmol/L.
“FGF21 H60C, S79C (SEQ ID NO: 75) (from UniProt Q9NSA1 29-209) (ligand)” yielded a pERK ICW EC50 of 67.1 nmol/L.
In the case of “FGF21 H140C, L142C (SEQ ID NO: 82) (from UniProt Q9NSA1 29-209) (ligand)”, the pERK ICW EC50 was 2.27 nmol/L.
“FGF21 H145C, P161C (SEQ ID NO: 120) (from UniProt Q9NSA1 29-209) (ligand)” had a pERK ICW EC50 of 6.51 nmol/L.
“FGF21 I63C, G112C (SEQ ID NO: 79) (from UniProt Q9NSA1 29-209) (ligand)”: the pERK ICW EC50 was 5.05 nmol/L.
Under “FGF21 I63C, T98C (SEQ ID NO: 111) (from UniProt Q9NSA1 29-209) (ligand)” stands 87.6 nmol/L.
In the case of “FGF21 L80C, V96C (SEQ ID NO: 119) (from UniProt Q9NSA1 29-209) (ligand)”, the pERK ICW EC50 worked out at 17.9 nmol/L.
In turn, “FGF21 L81C, G95C (SEQ ID NO: 121) (from UniProt Q9NSA1 29-209) (ligand)” had a pERK ICW EC50 of 46.5 nmol/L.
Next, “FGF21 L146C, A162C (SEQ ID NO: 35) (from UniProt Q9NSA1 29-209) (ligand)”: 8.28 nmol/L.
As for “FGF21 M196 deleted, S201 deleted (SEQ ID NO: 70) (from UniProt Q9NSA1 29-209) (ligand)”, the pERK ICW EC50 was determined as 165 nmol/L.
As for “FGF21 M196V, V197M (SEQ ID NO: 13) (from UniProt Q9NSA1 29-209) (ligand)”, the pERK ICW EC50 turned out to be 26.7 nmol/L.
For “FGF21 P77C, K97C (SEQ ID NO: 117) (from UniProt Q9NSA1 29-209) (ligand)”, the pERK ICW EC50 was determined as 8.76 nmol/L.
Take “FGF21 P143C, A162C (SEQ ID NO: 116) (from UniProt Q9NSA1 29-209) (ligand)”: the pERK ICW EC50 turned out to be 17.6 nmol/L.
“FGF21 P185-P186 deleted (SEQ ID NO: 59) (from UniProt Q9NSA1 29-209) (ligand)” gave a pERK ICW EC50 of 21.1 nmol/L.
Under “FGF21 P186 deleted (SEQ ID NO: 58) (from UniProt Q9NSA1 29-209) (ligand)” stands 0.87 nmol/L; under “FGF21 P199 deleted (SEQ ID NO: 11) (from UniProt Q9NSA1 29-209) (ligand)”, 2.31 nmol/L; under “FGF21 P199G (SEQ ID NO: 21) (from UniProt Q9NSA1 29-209) (ligand)”, 1.65 nmol/L.
The substance “FGF21 P199Q, Q201P (SEQ ID NO: 10) (from UniProt Q9NSA1 29-209) (ligand)” gave a pERK ICW EC50 of 1.76 nmol/L.
“FGF21 P199R (SEQ ID NO: 22) (from UniProt Q9NSA1 29-209) (ligand)” showed a pERK ICW EC50 of 0.95 nmol/L.
In turn, “FGF21 P199S, S200P (SEQ ID NO: 9) (from UniProt Q9NSA1 29-209) (ligand)” registered a pERK ICW EC50 of 1.72 nmol/L.
Substance “FGF21 P199T (SEQ ID NO: 23) (from UniProt Q9NSA1 29-209) (ligand)” displayed a pERK ICW EC50 of 1.66 nmol/L.
In the case of “FGF21 P205 deleted (SEQ ID NO: 66) (from UniProt Q9NSA1 29-209) (ligand)”, the pERK ICW EC50 amounted to 27.4 nmol/L.
The substance “FGF21 Q55C, G148C (SEQ ID NO: 93) (from UniProt Q9NSA1 29-209) (ligand)” gave a pERK ICW EC50 of 0.48 nmol/L.
The substance “FGF21 Q55C, G148C, N149-R159 deleted and replaced by GGSGGS (SEQ ID NO: 95) (from UniProt Q9NSA1 29-209) (ligand)” gave a pERK ICW EC50 of 7.27 nmol/L.
Substance “FGF21 Q55C, G148C, N149-R159 deleted and replaced by GSGS (SEQ ID NO: 94) (from UniProt Q9NSA1 29-209) (ligand)” came in with a pERK ICW EC50 of 8.19 nmol/L.
“FGF21 Q55C, N149C, G198Y (SEQ ID NO: 47) (from UniProt Q9NSA1 29-209) (ligand)” yielded a pERK ICW EC50 of 0.58 nmol/L.
In turn, “FGF21 Q55C, N149C, P199 deleted (SEQ ID NO: 46) (from UniProt Q9NSA1 29-209) (ligand)” had a pERK ICW EC50 of 1.7 nmol/L.
“FGF21 Q55C, P147C, G198Y (SEQ ID NO: 45) (from UniProt Q9NSA1 29-209) (ligand)” had a pERK ICW EC50 of 3.6 nmol/L.
“FGF21 Q55C, P147C, P199 deleted (SEQ ID NO: 44) (from UniProt Q9NSA1 29-209) (ligand)” had a pERK ICW EC50 of 10 nmol/L.
Regarding “FGF21 Q55G, Q56C, L146C (SEQ ID NO: 96) (from UniProt Q9NSA1 29-209) (ligand)”, the pERK ICW EC50 worked out at 163 nmol/L.
As for “FGF21 Q55G, Q56C, L146C, P147-R159 deleted and replaced by GGSGGS (SEQ ID NO: 98) (from UniProt Q9NSA1 29-209) (ligand)”, the pERK ICW EC50 was found to be 155 nmol/L.
As for “FGF21 Q55G, Q56C, L146C, P147-R159 deleted and replaced by GSGS (SEQ ID NO: 97) (from UniProt Q9NSA1 29-209) (ligand)”, the pERK ICW EC50 was 114 nmol/L.
Next, “FGF21 Q82C, L94C (SEQ ID NO: 122) (from UniProt Q9NSA1 29-209) (ligand)”: 5.57 nmol/L.
